# Numbering of substitutions follows the chain as printed.
# T1: cynomolgus monkey SIRPγ-His monomer protein (cynomolgus monkey, UniProt Q9P1W8 29-359 (human entry), limits assumed)
# T1 construct: also called Cyno SIRPγ; Cyno SIRPγ-His
# T1 chain: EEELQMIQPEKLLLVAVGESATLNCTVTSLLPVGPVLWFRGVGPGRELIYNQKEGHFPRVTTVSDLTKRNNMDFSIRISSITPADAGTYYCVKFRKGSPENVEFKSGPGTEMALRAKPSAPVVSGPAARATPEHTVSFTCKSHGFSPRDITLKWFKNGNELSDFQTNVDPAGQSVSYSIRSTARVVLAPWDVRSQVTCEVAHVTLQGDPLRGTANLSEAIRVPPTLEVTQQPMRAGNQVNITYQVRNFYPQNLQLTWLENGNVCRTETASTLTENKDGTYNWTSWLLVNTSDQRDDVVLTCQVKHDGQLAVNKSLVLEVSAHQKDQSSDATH
# T2: cynomolgus monkey SIRPγ on CHO cells (cynomolgus monkey, UniProt Q9P1W8 29-386 (human entry))
# T2 construct: also called Cyno SIRPγ CHO
# T2 chain: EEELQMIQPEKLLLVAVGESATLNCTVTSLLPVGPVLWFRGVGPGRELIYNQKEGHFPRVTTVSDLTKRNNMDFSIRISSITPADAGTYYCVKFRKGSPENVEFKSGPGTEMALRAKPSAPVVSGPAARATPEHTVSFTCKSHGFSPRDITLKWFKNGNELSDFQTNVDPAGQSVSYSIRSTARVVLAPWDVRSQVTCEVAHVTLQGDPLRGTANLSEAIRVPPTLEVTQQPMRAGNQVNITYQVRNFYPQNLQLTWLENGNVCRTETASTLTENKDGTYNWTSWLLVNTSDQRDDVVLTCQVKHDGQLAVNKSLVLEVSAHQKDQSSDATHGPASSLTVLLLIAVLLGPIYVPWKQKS
# T3: cynomolgus monkey SIRPα on CHO cells (cynomolgus monkey, UniProt A0A2K5VYQ9 31-507)
# T3 construct: whole, on cells; also called Cyno SIRPα CHO
# T3 sequence: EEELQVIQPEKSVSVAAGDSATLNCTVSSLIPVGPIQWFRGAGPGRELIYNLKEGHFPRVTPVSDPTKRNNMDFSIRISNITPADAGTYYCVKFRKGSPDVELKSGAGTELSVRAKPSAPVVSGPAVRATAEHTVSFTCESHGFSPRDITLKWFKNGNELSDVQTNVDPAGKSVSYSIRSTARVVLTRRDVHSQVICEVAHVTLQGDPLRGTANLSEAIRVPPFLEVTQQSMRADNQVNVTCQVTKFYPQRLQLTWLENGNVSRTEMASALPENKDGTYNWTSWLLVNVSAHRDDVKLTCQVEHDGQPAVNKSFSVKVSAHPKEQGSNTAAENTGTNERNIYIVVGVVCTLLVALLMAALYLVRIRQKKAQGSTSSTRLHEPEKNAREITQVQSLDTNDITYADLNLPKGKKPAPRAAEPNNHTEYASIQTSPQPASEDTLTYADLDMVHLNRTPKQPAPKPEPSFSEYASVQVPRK
# T4: Cynomolgus Monkey SIRPγ (plate-coated extracellular domain)
# T4 construct: also called Cyno SIRPγ
# T4 extracellular domain: T1 chain
# B1: Antibody 90 (antibody, V domains shown)
# VH: QVQLVQSGAEVKKPGASVKVSCKASGYTFTSYYMHWVRQAPGQGLEWMGWMNPNSDNTGYAQKFQGRVTMTRDTSTSTVYMELSSLRSEDTAVYYCARVGVGYGYYYYGMDVWGQGTTVTVSS
# VL: DIQMTQSPSSLSASVGDRVTITCRAGQSIGDYLNWYQQKPGKAPKLLIYAASSLQSGVPSRFSGSGSGTDFTLTISSLQPEDFATYYCQQSYSTPWTFGQGTKVEIK
# B2: Antibody 83 (antibody, V domains shown)
# VH: QVQLVQSGAEVKKPGASVKVSCKASGYSFSDYYMHWVRQAPGQGLEWMGWMSPNSGNTGYAQKFQGRVTMTRDTSTSTVYMELSSLRSEDTAVYYCARQREEYGHYYYGMDVWGQGTMVTVSS
# VL: EIVMTQSPATLSVSPGERATLSCRASQSLGSTYLAWYQQKPGQAPRLLIYGASTRATGIPARFSGSGSGTEFTLTISSLQSEDFAVYYCQQYYSSPPTFGQGTKVEIK
# B3: Antibody 96 (antibody, V domains shown)
# VH: QVQLVQSGAEVKKPGASVKVSCKASGYTFTRYDINWVRQAPGQGLEWMGWMNPNSGNTGYAQKLQGRVTMTRDTSTSTVYMELSSLRSEDTAVYYCARERVGYCSSTSCLHPLDYWGQGTLVTVSS
# VL: DIQMTQSPSSLSASVGDRVTITCRASQGIRNDLGWYQQKPGKAPKLLIYSASNLQSGVPSRFSGSGSGTDFTLTISSLQPEDFATYYCQQSYDVPLTFGGGTKVEIK
# B4: Antibody 79 (antibody, V domains shown)
# VH: QVQLVQSGAEVKKPGASVKVSCKASGYTFTSYYMHWVRQAPGQGLEWMGWMNPNSGNTGYAQKFQGRVTMTRDTSTSTVYMELSSLRSEDTAVYYCARDQMYSSYGMDVWGQGTTVTVSS
# VL: B1 VL with G26S, Q27E, G30T, D31N, Y32W, N34A, A50K, Q55E, S93G, W96Y
# B5: Antibody 69 (antibody, V domains shown)
# VH: B1 VH
# VL: B1 VL
# B6: Antibody 60 (antibody, V domains shown)
# VH: EVQLLESGGGLVQPGGSLRLSCAASGFTLGSYWMHWVRQAPGKGLEWVSLISWDGGSTYYADSVKGRFTISRDNSKNTLYLQMNSLRAEDTAVYYCAKGPWVGYSGYDLNYYYYGMDVWGQGTTVTVSS
# VL: DIQMTQSPSSLSASVGDRVTITCRASQDIRRALAWYQQKPGKAPKLLIYAASSLQSGVPSRFSGSGSGTDFTLTISSLQPEDFATYYCLQHNSYPPTFGQGTKLEIK
# B7: Antibody 82 (antibody, V domains shown)
# VH: QVQLVQSGAEVKKPGASVKVSCKASGHTFNNNYIHWVRQAPGQGLEWMGIINPSGGSTSYAQKFQGRVTMTRDTSTSTVYMELSSLRSEDTAVYYCARQIQDYGYYYYGMDVWGQGTTVTVSS
# VL: EIVMTQSPATLSVSPGERATLSCRASQSVSKYLAWYQQKPGQAPRLLIYAISARAAGIPARFSGSGSGTEFTLTISSLQSEDFAVYYCQQYYSSPPTFGQGTKVEIK
# B8: Antibody 57 (antibody, V domains shown)
# VH: QVQLVQSGAEVKKPGASVKVSCKASGYTFTSYYMHWVRQAPGQGLEWMGWINPNSGNAGFAQKFQGRVTMTRDTSTSTVYMELSSLRSEDTAVYYCARGPVYSYGPFDYWGQGTLVTVSS
# VL: B1 VL with G26S, S28G, G30S, D31T, N34A, S53T, Y92H, T94A, W96I
# B9: Antibody 80 (antibody, V domains shown)
# VH: B3 VH
# VL: B3 VL
# Biological target: T5, human SIRPγ-His monomer protein (human, UniProt Q9P1W8 29-360)
# T5 construct: also called hSIRPγ
# Assay: BLI Octet, antibody on AHC, global 1:2 model
# Experimental: (§1) Antibodies were coated onto anti-human Fc capture (AHC) biosensors. SIRP-His monomer protein or bivalent SIRP protein with mouse Fc at four concentrations (200 nM, 100 nM, 50 nM, 25 nM) were exposed to the biosensor to measure on-rate kinetics of SIRP antibodies binding to SIRP protein. The biosensors were then exposed to wash buffer to measure off-rate kinetics. The resulting kinetic data were analyzed and fitted using a global 1:2 binding model.
# T5 sequence (Q9P1W8 29-360 limits assumed): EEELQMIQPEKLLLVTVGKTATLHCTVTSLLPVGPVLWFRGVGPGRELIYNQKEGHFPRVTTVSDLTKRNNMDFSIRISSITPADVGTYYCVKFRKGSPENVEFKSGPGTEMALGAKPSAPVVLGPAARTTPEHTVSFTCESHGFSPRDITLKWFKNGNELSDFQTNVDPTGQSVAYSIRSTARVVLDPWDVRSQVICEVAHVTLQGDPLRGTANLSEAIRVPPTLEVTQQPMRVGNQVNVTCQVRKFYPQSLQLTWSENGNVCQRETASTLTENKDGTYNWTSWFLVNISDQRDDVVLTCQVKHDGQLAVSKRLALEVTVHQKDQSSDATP
row,Binder,Kd [nM]
1,B1,175
2,B2,174
3,B3,70.3

# Biological target: T1, cynomolgus monkey SIRPγ-His monomer …
# Assay: BLI Octet, antibody on AHC, global 1:2 model
# Experimental: as §1
row,Binder,Kd [nM]
1,B1,69.2
2,B2,11.7
3,B3,211

# Biological target: T6, bivalent human SIRPγ protein with mouse Fc (human, UniProt Q9P1W8 29-360)
# T6 construct: also called Human SIRPγ-mFc
# Assay: BLI Octet, antibody on AHC, global 1:2 model
# Experimental: as §1
# T6 sequence (Q9P1W8 29-360 limits assumed): as above
row,Binder,Kd [nM]
1,B1,87.6
2,B2,53.2
3,B3,21.5

# Biological target: T2, cynomolgus monkey SIRPγ on CHO cells
# Assay: flow cytometry, CHO transfectants, anti-human IgG
# Summary of the method: (§2)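 Flow cytometry on stable CHO transfectants; antibody titration; fluorescent anti-human IgG detection; MFI per concentration. myc-tagged scFv: crude PPE on SIRP-expressing CHO and parental CHO-K1; fold change <2.0 = non-binder.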
row,Binder,EC50 (read off the curve) [µg/mL]
1,B4,~0.5
2,B5,~0.6
3,B6,~0.7
4,B7,~0.7
5,B8,~0.4
6,B9,~0.7
7,B3,~0.6

# Biological target: T3, cynomolgus monkey SIRPα on CHO cells
# Assay: flow cytometry, CHO transfectants, anti-human IgG
# Summary of the method: as §2
row,Binder,binding result
1,B4,no binding (tested: about 20 µg/mL)
2,B1,no binding (tested: about 30 µg/mL)
3,B5,no binding (tested: about 20 µg/mL)
4,B6,no binding (tested: about 20 µg/mL)
5,B7,no binding (tested: about 20 µg/mL)
6,B2,no binding (tested: about 30 µg/mL)
7,B8,no binding (tested: about 20 µg/mL)
8,B9,no binding (tested: about 20 µg/mL)
9,B3,no binding (tested: about 30 µg/mL)

# Biological target: T7, human SIRPβ1 on CHO cells (co-transfected with DAP12) (human, UniProt O00241 30-398)
# T7 construct: whole, on cells; co-transfected with DAP12; also called Human SIRPβ1 CHO
# Assay: flow cytometry, CHO transfectants, anti-human IgG
# Summary of the method: as §2
# T7 sequence (O00241 30-398): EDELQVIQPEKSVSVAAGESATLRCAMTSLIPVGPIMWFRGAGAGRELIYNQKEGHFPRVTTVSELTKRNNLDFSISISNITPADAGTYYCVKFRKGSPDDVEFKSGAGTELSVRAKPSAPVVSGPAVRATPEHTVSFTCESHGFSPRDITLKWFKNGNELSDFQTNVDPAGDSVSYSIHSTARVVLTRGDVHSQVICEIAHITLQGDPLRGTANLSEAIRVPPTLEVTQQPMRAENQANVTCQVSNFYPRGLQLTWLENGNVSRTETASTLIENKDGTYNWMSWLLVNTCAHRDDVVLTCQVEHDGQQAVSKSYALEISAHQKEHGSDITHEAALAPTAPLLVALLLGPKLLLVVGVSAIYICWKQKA
row,Binder,binding result
1,B4,no binding (tested: about 20 µg/mL)
2,B1,no binding (tested: about 30 µg/mL)
3,B5,no binding (tested: about 20 µg/mL)
4,B6,no binding (tested: about 20 µg/mL)
5,B7,no binding (tested: about 20 µg/mL)
6,B2,no binding (tested: about 30 µg/mL)
7,B8,no binding (tested: about 20 µg/mL)
8,B9,no binding (tested: about 20 µg/mL)
9,B3,no binding (tested: about 30 µg/mL)

# Biological target: T8, human SIRPγ on stably transfected CHO cells (human, UniProt Q9P1W8 29-387)
# T8 construct: also called Human SIRPγ CHO
# Assay: flow cytometry, CHO transfectants, anti-human IgG
# Summary of the method: as §2
# T8 sequence (Q9P1W8 29-387 limits assumed): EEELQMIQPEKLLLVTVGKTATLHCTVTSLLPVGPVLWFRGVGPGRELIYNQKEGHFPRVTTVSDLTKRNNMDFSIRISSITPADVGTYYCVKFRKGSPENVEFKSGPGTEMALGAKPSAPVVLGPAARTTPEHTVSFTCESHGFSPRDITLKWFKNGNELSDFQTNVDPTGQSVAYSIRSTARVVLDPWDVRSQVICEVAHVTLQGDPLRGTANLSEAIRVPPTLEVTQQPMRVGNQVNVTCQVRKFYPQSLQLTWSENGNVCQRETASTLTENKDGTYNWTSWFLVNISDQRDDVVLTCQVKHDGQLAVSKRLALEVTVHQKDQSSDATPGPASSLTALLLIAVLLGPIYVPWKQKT
row,Binder,EC50 (read off the curve) [µg/mL]
1,B5,~0.5
2,B6,~0.9
3,B8,~0.6
4,B9,~0.2
5,B3,~0.4

# Biological target: T4, Cynomolgus Monkey SIRPγ (plate-coated …)
# Assay: ELISA, coated SIRP ECD (2 µg/mL), anti-human IgG, luminescence
# Summary of the method: (§3)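 Plate-coated SIRP extracellular domain (2 μg/mL), blocked, then exposed to purified antibodies in titration, after transient expression in Expi293F cells for 5 days and Protein A purification. Bound antibody is detected with anti-human IgG and a chemiluminescent substrate, and reported as relative luminescence units.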
row,Binder,EC50 (read off the curve) [µg/mL]
1,B4,~0.06
2,B6,~0.03
3,B7,~0.03
4,B9,~0.05

# Biological target: T9, extracellular binding domain of human SIRPγ (plate-coated) (human, UniProt Q9P1W8 29-360)
# T9 construct: also called hSIRPγ
# Assay: as above
# Summary of the method: as §3
# T9 sequence (Q9P1W8 29-360 limits assumed): as the sequence (Q9P1W8 29-360 limits assumed) above
row,Binder,EC50 (read off the curve) [µg/mL]
1,B4,~0.03
2,B6,~0.02
3,B7,~0.01
4,B9,~0.02

# Biological target: T9, extracellular binding domain of human …
# Assay: competition ELISA, coated SIRPγ ECD, antibody 1 h then 10 µg/mL biotinylated CD47-Fc (blocked ligand), streptavidin-HRP
# Experimental: To carry out the competition experiment, the extracellular binding domain of SIRPγ was coated onto a high protein-binding plate and blocked. A titration of each SIRPγ antibody was incubated on the plate for 1 hour. […] Following a wash, streptavidin-HRP was added. The plate was washed again and developed using a chemiluminescent substrate. The plate was read on a plate reader to assess luminescence. […] A known blocker antibody was used as a positive control.
row,Binder,IC50 (read off the curve) [µg/mL]
1,B1,~0.2
2,B2,~0.2

# — patent US20240400677A1 (ELECTRA THERAPEUTICS, published 2024)
